T1: BMPRII receptor-Fc fusion (UniProt Q13873 27-151, limits assumed)
T1 construct: BMP receptor-Fc fusion used at 5 ug/mL
T1 sequence (looked up): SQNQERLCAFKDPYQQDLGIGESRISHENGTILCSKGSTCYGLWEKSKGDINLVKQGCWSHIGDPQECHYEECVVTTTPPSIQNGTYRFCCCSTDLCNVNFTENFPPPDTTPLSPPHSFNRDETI

T2: BMPRIb receptor-Fc fusion (UniProt O00238 14-126)
T2 construct: BMP receptor-Fc fusion used at 5 ug/mL; also called ALK-6
T2 sequence (looked up): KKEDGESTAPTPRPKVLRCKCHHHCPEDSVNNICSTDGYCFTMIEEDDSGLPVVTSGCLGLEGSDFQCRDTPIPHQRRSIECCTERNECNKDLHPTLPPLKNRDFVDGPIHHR


What was measured:
Assay in all cases: ELISA-like plate assay, captured BMP-7 from conditioned media, receptor-Fc detection
[1] = target: T3, BMPRIa receptor-Fc fusion (UniProt P36894 24-152, limits assumed)
T3 construct: also called ALK-3

[2] = target: T1, BMPRII receptor-Fc fusion
[3] = target: T2, BMPRIb receptor-Fc fusion
[4] = target: T4, ActRIIa receptor-Fc fusion (UniProt P27037 20-134, limits assumed)
T4 construct: BMP receptor-Fc fusion used at 5 ug/mL
T4 sequence (P27037 20-134 limits assumed): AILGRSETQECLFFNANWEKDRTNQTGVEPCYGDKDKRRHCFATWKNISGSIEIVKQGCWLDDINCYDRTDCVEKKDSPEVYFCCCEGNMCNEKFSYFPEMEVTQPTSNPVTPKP

T3 sequence (P36894 24-152 limits assumed): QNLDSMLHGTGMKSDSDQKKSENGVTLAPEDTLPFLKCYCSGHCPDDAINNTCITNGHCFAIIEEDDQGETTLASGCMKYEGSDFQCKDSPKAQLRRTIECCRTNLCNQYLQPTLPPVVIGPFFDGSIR

Row | Binder | BMPRIa binding (relative to wild type = 1.0) [1] | BMPRII binding (relative to wild type = 1.0) [2] | BMPRIb binding (relative to wild type = 1.0) [3] | ActRIIa binding (relative to wild type = 1.0) [4]
1 | BMP-7 variant F93T (ligand, In conditioned media; numbering on mature BMP-7) STGGKQRSQNRSKTPKNQEALRMASVAENSSSDQRQACKKHELYVSFRDLGWQDWIIAPEGYAAYYCEGECAFPLNSYMNATNHAIVQTLVHTINPETVPKPCCAPTQLNAISVLYFDDSSNVILKKYRNMVVRACGCH | 0.77 relative to wild type | 0.81 relative to wild type | 0.88 relative to wild type | 0.79 relative to wild type
2 | BMP-7 variant L21G (ligand, In conditioned media; numbering on mature BMP-7) STGGKQRSQNRSKTPKNQEAGRMASVAENSSSDQRQACKKHELYVSFRDLGWQDWIIAPEGYAAYYCEGECAFPLNSYMNATNHAIVQTLVHFINPETVPKPCCAPTQLNAISVLYFDDSSNVILKKYRNMVVRACGCH | 2.53 relative to wild type | 2.3 relative to wild type | 3.65 relative to wild type | 1.5 relative to wild type
3 | BMP-7 variant L21D (ligand, In conditioned media; numbering on mature BMP-7) STGGKQRSQNRSKTPKNQEADRMASVAENSSSDQRQACKKHELYVSFRDLGWQDWIIAPEGYAAYYCEGECAFPLNSYMNATNHAIVQTLVHFINPETVPKPCCAPTQLNAISVLYFDDSSNVILKKYRNMVVRACGCH | 1.01 relative to wild type | 0.94 relative to wild type | 1.52 relative to wild type | 0.94 relative to wild type
4 | BMP-7 variant F117K (ligand, In conditioned media; numbering on mature BMP-7) STGGKQRSQNRSKTPKNQEALRMASVAENSSSDQRQACKKHELYVSFRDLGWQDWIIAPEGYAAYYCEGECAFPLNSYMNATNHAIVQTLVHFINPETVPKPCCAPTQLNAISVLYKDDSSNVILKKYRNMVVRACGCH | 0.43 relative to wild type | 0.2 relative to wild type | 0.62 relative to wild type | 0.34 relative to wild type
5 | BMP-7 variant L90E (ligand, In conditioned media; numbering on mature BMP-7) STGGKQRSQNRSKTPKNQEALRMASVAENSSSDQRQACKKHELYVSFRDLGWQDWIIAPEGYAAYYCEGECAFPLNSYMNATNHAIVQTEVHFINPETVPKPCCAPTQLNAISVLYFDDSSNVILKKYRNMVVRACGCH | 0.2 relative to wild type | 0.18 relative to wild type | 0.27 relative to wild type | 0.24 relative to wild type
6 | BMP-7 variant I86D (ligand, In conditioned media; numbering on mature BMP-7) STGGKQRSQNRSKTPKNQEALRMASVAENSSSDQRQACKKHELYVSFRDLGWQDWIIAPEGYAAYYCEGECAFPLNSYMNATNHADVQTLVHFINPETVPKPCCAPTQLNAISVLYFDDSSNVILKKYRNMVVRACGCH | 1.03 relative to wild type | 1.31 relative to wild type | 1.18 relative to wild type | 1.09 relative to wild type
7 | BMP-7 variant L21N (ligand, In conditioned media; numbering on mature BMP-7) STGGKQRSQNRSKTPKNQEANRMASVAENSSSDQRQACKKHELYVSFRDLGWQDWIIAPEGYAAYYCEGECAFPLNSYMNATNHAIVQTLVHFINPETVPKPCCAPTQLNAISVLYFDDSSNVILKKYRNMVVRACGCH | 1.57 relative to wild type | 1.73 relative to wild type | 2.81 relative to wild type | 1.03 relative to wild type
8 | BMP-7 variant K126Q (ligand, In conditioned media; numbering on mature BMP-7) STGGKQRSQNRSKTPKNQEALRMASVAENSSSDQRQACKKHELYVSFRDLGWQDWIIAPEGYAAYYCEGECAFPLNSYMNATNHAIVQTLVHFINPETVPKPCCAPTQLNAISVLYFDDSSNVILQKYRNMVVRACGCH | 0.46 relative to wild type | 0.28 relative to wild type | 0.57 relative to wild type | 0.81 relative to wild type
9 | BMP-7 variant K126E (ligand, In conditioned media; numbering on mature BMP-7) STGGKQRSQNRSKTPKNQEALRMASVAENSSSDQRQACKKHELYVSFRDLGWQDWIIAPEGYAAYYCEGECAFPLNSYMNATNHAIVQTLVHFINPETVPKPCCAPTQLNAISVLYFDDSSNVILEKYRNMVVRACGCH | 0.23 relative to wild type | 0 relative to wild type | 0.22 relative to wild type | 0.26 relative to wild type
10 | BMP-7 variant I94Q (ligand, In conditioned media; numbering on mature BMP-7) STGGKQRSQNRSKTPKNQEALRMASVAENSSSDQRQACKKHELYVSFRDLGWQDWIIAPEGYAAYYCEGECAFPLNSYMNATNHAIVQTLVHFQNPETVPKPCCAPTQLNAISVLYFDDSSNVILKKYRNMVVRACGCH | 0.74 relative to wild type | 1.32 relative to wild type | 0.74 relative to wild type | 1.1 relative to wild type
11 | BMP-7 variant I86E (ligand, In conditioned media; numbering on mature BMP-7) STGGKQRSQNRSKTPKNQEALRMASVAENSSSDQRQACKKHELYVSFRDLGWQDWIIAPEGYAAYYCEGECAFPLNSYMNATNHAEVQTLVHFINPETVPKPCCAPTQLNAISVLYFDDSSNVILKKYRNMVVRACGCH | 0.66 relative to wild type | 1.13 relative to wild type | 0.69 relative to wild type | 1 relative to wild type
12 | BMP-7 variant F117Y (ligand, In conditioned media; numbering on mature BMP-7) STGGKQRSQNRSKTPKNQEALRMASVAENSSSDQRQACKKHELYVSFRDLGWQDWIIAPEGYAAYYCEGECAFPLNSYMNATNHAIVQTLVHFINPETVPKPCCAPTQLNAISVLYYDDSSNVILKKYRNMVVRACGCH | 1.07 relative to wild type | 0.96 relative to wild type | 0.73 relative to wild type | 1.03 relative to wild type
13 | BMP-7 variant I86Q (ligand, In conditioned media; numbering on mature BMP-7) STGGKQRSQNRSKTPKNQEALRMASVAENSSSDQRQACKKHELYVSFRDLGWQDWIIAPEGYAAYYCEGECAFPLNSYMNATNHAQVQTLVHFINPETVPKPCCAPTQLNAISVLYFDDSSNVILKKYRNMVVRACGCH | 0.66 relative to wild type | 1.07 relative to wild type | 0.82 relative to wild type | 0.96 relative to wild type
14 | BMP-7 variant K39N (ligand, In conditioned media; numbering on mature BMP-7) STGGKQRSQNRSKTPKNQEALRMASVAENSSSDQRQACNKHELYVSFRDLGWQDWIIAPEGYAAYYCEGECAFPLNSYMNATNHAIVQTLVHFINPETVPKPCCAPTQLNAISVLYFDDSSNVILKKYRNMVVRACGCH | 1.98 relative to wild type | 0.99 relative to wild type | 1.63 relative to wild type | 1.08 relative to wild type
15 | BMP-7 variant I57L (ligand, In conditioned media; numbering on mature BMP-7) STGGKQRSQNRSKTPKNQEALRMASVAENSSSDQRQACKKHELYVSFRDLGWQDWILAPEGYAAYYCEGECAFPLNSYMNATNHAIVQTLVHFINPETVPKPCCAPTQLNAISVLYFDDSSNVILKKYRNMVVRACGCH | 0.92 relative to wild type | 0.4 relative to wild type | 1.17 relative to wild type | 0.9 relative to wild type
16 | BMP-7 variant L21R (ligand, In conditioned media; numbering on mature BMP-7) STGGKQRSQNRSKTPKNQEARRMASVAENSSSDQRQACKKHELYVSFRDLGWQDWIIAPEGYAAYYCEGECAFPLNSYMNATNHAIVQTLVHFINPETVPKPCCAPTQLNAISVLYFDDSSNVILKKYRNMVVRACGCH | 0.83 relative to wild type | 0.66 relative to wild type | 1.01 relative to wild type | 0.84 relative to wild type
17 | BMP-7 variant F117R (ligand, In conditioned media; numbering on mature BMP-7) STGGKQRSQNRSKTPKNQEALRMASVAENSSSDQRQACKKHELYVSFRDLGWQDWIIAPEGYAAYYCEGECAFPLNSYMNATNHAIVQTLVHFINPETVPKPCCAPTQLNAISVLYRDDSSNVILKKYRNMVVRACGCH | 0.47 relative to wild type | 0.72 relative to wild type | 0.71 relative to wild type | 0.35 relative to wild type
18 | BMP-7 variant K39S (ligand, In conditioned media; numbering on mature BMP-7) STGGKQRSQNRSKTPKNQEALRMASVAENSSSDQRQACSKHELYVSFRDLGWQDWIIAPEGYAAYYCEGECAFPLNSYMNATNHAIVQTLVHFINPETVPKPCCAPTQLNAISVLYFDDSSNVILKKYRNMVVRACGCH | 2.77 relative to wild type | 1.37 relative to wild type | 2.23 relative to wild type | 1.04 relative to wild type
19 | BMP-7 variant I86K (ligand, In conditioned media; numbering on mature BMP-7) STGGKQRSQNRSKTPKNQEALRMASVAENSSSDQRQACKKHELYVSFRDLGWQDWIIAPEGYAAYYCEGECAFPLNSYMNATNHAKVQTLVHFINPETVPKPCCAPTQLNAISVLYFDDSSNVILKKYRNMVVRACGCH | 0.81 relative to wild type | 1.02 relative to wild type | 0.69 relative to wild type | 0.97 relative to wild type
20 | BMP-7 variant K39A (ligand, In conditioned media; numbering on mature BMP-7) STGGKQRSQNRSKTPKNQEALRMASVAENSSSDQRQACAKHELYVSFRDLGWQDWIIAPEGYAAYYCEGECAFPLNSYMNATNHAIVQTLVHFINPETVPKPCCAPTQLNAISVLYFDDSSNVILKKYRNMVVRACGCH | 3.48 relative to wild type | 1.51 relative to wild type | 2.86 relative to wild type | 1.06 relative to wild type
